In article PMC8092281, “Two Distinct Conformations in 34 FliF Subunits Generate Three Different Symmetries within the Flagellar MS-Ring” (mBio, 2021):

Target: the molecule itself
Experiment: cryo-EM structure; single-particle cryoEM of the purified Salmonella MS-FliG ring complex in 25 mM Tris-HCl pH 8.0, 50 mM NaCl, 1 mM EDTA, 0.1% DDM; 8.6 Å (C1) and 6.1 Å (C11) reconstructions

B1: Salmonella FliF (MS-ring of the purified MS-FliG ring complex) (natural protein, UniProt P15928 1-560, looked up)
chain: MSATASTATQPKPLEWLNRLRANPRIPLIVAGSAAVAIVVAMVLWAKTPDYRTLFSNLSDQDGGAIVAQLTQMNIPYRFANGSGAIEVPADKVHELRLRLAQQGLPKGGAVGFELLDQEKFGISQFSEQVNYQRALEGELARTIETLGPVKSARVHLAMPKPSLFVREQKSPSASVTVTLEPGRALDEGQISAVVHLVSSAVAGLPPGNVTLVDQSGHLLTQSNTSGRDLNDAQLKFANDVESRIQRRIEAILSPIVGNGNVHAQVTAQLDFANKEQTEEHYSPNGDASKATLRSRQLNISEQVGAGYPGGVPGALSNQPAPPNEAPIATPPTNQQNAQNTPQTSTSTNSNSAGPRSTQRNETSNYEVDRTIRHTKMNVGDIERLSVAVVVNYKTLADGKPLPLTADQMKQIEDLTREAMGFSDKRGDTLNVVNSPFSAVDNTGGELPFWQQQSFIDQLLAAGRWLLVLVVAWILWRKAVRPQLTRRVEEAKAAQEQAQVRQETEEAVEVRLSKDEQLQQRRANQRLGAEVMSQRIREMSDNDPRVVALVIRQWMSNDHE
notes: FliF, flagellar M-ring protein, Salmonella; 60-kDa protein with two transmembrane helices and a large periplasmic region; also called St-FliF; copies: 34
  stoichiometry N: 34
